The results in this text go back to US20260184748A1, “COMPOSITIONS COMPRISING OCTADECANEUROPEPTIDES (ODN) AND SYNTHETIC DERIVATIVES THEREOF AND METHODS OF USE FOR MODULATION OF FOOD INTAKE, OBESITY, BODY WEIGHT, NAUSEA, AND EMESIS” (The Trustees of the University of Pennsylvania, priority 2022, published 2026).

Where no end group is shown, it is not given here.

Common to all, as to experiment: cell-based or functional assay
Assay [1] concerns the target GPR103 (UniProt Q96P65).
In assay [2] the target is F2R, P25116.
Assay [3] deals with T1, NPBWR1 (UniProt P48145).
T1 sequence (looked up): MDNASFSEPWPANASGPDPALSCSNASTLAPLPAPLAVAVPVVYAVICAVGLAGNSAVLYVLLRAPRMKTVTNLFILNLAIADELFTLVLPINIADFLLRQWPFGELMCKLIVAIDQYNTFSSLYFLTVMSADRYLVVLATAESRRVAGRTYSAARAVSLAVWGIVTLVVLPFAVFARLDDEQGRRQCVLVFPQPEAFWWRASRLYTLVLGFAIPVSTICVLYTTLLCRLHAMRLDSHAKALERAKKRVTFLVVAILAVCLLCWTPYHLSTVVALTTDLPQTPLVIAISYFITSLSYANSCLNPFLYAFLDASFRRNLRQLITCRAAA

Assay [4] deals with NPBWR2 (UniProt P48146).
The target of assay [5] is DRD2L, P14416.
The target in assay [6] is PROKR1 (UniProt Q8TCW9).
For assay [7], the target named is PROKR2 (UniProt Q8NFJ6).
In assay [8] the target is NMU1R (UniProt Q9HB89).
Assay [9] concerns the target CXCR5 (UniProt P32302).
The target in assay [10] is MCHR1 (UniProt Q99705).
In assay [11] the target is MCHR2 (UniProt Q969V1).
Assay [12] has as its target CCR8 (UniProt P51685).
The target in assay [13] is T2, UTR2 (UniProt Q9UKP6).
T2 sequence (looked up): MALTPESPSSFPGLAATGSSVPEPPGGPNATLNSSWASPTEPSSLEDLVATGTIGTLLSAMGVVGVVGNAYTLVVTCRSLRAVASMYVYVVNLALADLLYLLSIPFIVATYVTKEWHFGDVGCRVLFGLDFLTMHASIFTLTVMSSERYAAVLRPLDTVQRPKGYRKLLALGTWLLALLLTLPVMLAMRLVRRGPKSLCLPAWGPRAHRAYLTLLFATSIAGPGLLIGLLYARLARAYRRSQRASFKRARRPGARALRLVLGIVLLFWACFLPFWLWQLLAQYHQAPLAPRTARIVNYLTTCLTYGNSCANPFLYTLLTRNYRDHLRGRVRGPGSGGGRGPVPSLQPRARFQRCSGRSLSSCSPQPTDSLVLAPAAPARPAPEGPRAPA

Assay [14] addresses CXCR6 (UniProt O00574).
Assay [15] addresses T3, NPSR1B (UniProt Q6W5P4).
T3 sequence (looked up): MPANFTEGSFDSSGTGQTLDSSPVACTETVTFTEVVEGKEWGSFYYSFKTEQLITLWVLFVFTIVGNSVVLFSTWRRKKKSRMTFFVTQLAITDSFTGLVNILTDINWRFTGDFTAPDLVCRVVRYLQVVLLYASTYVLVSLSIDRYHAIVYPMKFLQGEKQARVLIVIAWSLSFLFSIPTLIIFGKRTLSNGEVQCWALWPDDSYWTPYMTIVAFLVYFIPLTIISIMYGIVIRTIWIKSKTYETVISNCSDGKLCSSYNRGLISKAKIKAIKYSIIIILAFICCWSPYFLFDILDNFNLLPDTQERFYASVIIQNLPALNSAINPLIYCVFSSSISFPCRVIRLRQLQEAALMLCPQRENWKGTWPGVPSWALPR

Assay [16] addresses T4, CRHR2 (UniProt Q13324).
T4 sequence (looked up): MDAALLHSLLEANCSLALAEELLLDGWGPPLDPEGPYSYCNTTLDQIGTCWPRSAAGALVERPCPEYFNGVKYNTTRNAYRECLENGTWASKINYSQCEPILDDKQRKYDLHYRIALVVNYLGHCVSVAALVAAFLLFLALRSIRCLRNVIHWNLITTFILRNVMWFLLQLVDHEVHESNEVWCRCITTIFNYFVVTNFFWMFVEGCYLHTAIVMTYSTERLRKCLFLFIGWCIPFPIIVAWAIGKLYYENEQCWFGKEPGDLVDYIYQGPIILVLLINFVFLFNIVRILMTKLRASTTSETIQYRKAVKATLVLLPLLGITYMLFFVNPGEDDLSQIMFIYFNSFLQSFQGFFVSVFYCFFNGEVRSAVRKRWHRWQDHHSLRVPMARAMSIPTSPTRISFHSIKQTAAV

Assay [17] has as its target CRHR1 (UniProt P34998).
Assay [18] concerns the target T5, CCR10 (UniProt P46092).
T5 sequence (looked up): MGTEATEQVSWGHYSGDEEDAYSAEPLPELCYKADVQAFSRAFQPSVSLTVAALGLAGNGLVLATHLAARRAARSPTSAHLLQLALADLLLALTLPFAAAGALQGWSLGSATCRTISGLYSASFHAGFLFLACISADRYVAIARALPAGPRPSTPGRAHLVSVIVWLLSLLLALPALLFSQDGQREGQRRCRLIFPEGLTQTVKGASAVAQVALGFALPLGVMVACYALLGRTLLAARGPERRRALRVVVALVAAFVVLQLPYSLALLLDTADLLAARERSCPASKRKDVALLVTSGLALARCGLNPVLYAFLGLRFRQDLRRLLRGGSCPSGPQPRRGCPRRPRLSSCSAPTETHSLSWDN

The target in assay [19] is PPYR1 (UniProt P50391).
The target of assay [20] is T6, CCR4 (UniProt P51679).
T6 sequence (looked up): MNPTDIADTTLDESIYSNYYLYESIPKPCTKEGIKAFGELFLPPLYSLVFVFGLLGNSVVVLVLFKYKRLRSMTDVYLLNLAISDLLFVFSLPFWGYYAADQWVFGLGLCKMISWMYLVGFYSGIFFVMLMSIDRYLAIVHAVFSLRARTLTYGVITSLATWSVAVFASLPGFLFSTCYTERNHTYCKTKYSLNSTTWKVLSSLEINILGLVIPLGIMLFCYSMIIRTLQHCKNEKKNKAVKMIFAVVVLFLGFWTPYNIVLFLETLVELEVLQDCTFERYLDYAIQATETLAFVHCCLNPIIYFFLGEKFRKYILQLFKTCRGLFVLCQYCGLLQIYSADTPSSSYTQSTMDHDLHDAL

The target in assay [21] is CXCR3 (UniProt P49682).
Sequence of CXCR3 (P49682 whole entry): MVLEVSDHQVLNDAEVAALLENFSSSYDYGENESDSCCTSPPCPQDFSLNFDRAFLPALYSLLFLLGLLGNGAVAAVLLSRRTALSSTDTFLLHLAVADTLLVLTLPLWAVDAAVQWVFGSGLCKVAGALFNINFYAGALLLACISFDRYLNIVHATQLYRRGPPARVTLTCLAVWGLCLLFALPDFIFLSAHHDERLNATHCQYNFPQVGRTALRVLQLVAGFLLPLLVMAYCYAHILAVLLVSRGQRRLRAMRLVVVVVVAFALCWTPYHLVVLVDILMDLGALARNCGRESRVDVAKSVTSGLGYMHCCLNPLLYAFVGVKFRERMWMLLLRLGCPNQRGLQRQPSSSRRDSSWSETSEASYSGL

Sequence of F2R, P25116 (P25116 22-425): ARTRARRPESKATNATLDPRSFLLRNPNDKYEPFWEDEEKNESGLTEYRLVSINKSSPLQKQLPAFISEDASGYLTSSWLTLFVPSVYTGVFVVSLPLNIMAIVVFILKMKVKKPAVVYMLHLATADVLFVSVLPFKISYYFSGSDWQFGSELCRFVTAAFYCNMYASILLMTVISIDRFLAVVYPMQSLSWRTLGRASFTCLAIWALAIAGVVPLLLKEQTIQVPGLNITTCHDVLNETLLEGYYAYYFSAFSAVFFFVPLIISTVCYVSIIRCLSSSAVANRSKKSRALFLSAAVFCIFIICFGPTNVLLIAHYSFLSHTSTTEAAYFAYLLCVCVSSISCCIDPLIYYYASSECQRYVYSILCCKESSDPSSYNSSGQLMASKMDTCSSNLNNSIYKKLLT
Sequence of NPBWR2 (P48146 whole entry): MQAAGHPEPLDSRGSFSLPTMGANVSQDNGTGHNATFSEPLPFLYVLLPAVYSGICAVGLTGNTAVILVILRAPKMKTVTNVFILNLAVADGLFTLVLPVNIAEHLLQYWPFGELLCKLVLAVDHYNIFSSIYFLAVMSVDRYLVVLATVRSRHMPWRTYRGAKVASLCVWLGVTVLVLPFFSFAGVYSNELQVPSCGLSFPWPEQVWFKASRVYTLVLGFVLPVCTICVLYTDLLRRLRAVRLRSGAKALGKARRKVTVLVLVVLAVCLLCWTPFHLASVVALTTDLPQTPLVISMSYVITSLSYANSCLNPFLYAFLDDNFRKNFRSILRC
Sequence of CXCR5 (P32302 whole entry): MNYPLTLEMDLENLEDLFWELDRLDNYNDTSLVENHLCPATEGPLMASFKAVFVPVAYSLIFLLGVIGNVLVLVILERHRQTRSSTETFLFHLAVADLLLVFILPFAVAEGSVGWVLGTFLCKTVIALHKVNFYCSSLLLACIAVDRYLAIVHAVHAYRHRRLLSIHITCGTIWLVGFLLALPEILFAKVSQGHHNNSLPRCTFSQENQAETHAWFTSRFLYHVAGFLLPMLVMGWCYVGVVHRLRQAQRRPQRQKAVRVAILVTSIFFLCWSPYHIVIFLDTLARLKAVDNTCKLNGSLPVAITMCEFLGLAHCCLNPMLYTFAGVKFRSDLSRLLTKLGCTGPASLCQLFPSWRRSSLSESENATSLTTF
Sequence of PROKR1 (Q8TCW9 whole entry): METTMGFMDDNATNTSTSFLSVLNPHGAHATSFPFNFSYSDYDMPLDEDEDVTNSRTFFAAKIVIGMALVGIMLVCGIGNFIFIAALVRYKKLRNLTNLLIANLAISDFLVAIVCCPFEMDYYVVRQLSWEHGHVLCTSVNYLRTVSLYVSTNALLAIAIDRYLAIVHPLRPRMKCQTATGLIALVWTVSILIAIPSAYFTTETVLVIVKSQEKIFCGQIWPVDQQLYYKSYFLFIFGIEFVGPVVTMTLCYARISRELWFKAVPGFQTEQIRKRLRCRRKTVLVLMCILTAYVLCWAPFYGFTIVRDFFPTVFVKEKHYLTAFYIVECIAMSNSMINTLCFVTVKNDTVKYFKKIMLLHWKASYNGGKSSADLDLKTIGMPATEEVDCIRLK
Sequence of PROKR2 (Q8NFJ6 whole entry): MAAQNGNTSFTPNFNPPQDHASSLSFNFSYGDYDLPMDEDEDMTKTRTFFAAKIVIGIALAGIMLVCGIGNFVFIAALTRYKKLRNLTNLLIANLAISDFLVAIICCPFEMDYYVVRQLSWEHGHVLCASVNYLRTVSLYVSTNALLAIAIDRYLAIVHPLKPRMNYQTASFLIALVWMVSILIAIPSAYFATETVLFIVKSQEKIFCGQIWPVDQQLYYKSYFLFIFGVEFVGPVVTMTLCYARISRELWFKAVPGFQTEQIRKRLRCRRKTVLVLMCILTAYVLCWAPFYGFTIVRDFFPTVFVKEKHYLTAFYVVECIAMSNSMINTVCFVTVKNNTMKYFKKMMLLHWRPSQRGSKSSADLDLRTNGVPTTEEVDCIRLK
Sequence of MCHR2 (Q969V1 whole entry): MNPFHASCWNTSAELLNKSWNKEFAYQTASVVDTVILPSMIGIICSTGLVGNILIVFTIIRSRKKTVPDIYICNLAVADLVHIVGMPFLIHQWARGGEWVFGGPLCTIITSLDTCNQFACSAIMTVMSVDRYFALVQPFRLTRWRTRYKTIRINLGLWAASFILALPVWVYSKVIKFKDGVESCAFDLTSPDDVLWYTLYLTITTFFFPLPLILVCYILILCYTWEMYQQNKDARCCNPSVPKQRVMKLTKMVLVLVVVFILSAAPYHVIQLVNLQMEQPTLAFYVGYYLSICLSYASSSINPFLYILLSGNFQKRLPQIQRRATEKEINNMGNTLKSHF
Sequence of CRHR1 (P34998 24-415 limits assumed): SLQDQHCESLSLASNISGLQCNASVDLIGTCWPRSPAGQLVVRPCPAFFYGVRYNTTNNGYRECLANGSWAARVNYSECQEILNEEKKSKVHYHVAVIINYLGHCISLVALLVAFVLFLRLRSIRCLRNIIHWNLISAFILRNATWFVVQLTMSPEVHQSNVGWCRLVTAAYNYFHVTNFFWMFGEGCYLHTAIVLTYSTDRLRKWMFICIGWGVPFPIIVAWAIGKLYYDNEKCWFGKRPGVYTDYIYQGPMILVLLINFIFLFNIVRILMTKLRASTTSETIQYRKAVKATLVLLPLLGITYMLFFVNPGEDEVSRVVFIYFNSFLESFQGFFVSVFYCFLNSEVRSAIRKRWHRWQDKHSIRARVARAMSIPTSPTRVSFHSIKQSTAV
Sequence of CXCR6 (O00574 whole entry): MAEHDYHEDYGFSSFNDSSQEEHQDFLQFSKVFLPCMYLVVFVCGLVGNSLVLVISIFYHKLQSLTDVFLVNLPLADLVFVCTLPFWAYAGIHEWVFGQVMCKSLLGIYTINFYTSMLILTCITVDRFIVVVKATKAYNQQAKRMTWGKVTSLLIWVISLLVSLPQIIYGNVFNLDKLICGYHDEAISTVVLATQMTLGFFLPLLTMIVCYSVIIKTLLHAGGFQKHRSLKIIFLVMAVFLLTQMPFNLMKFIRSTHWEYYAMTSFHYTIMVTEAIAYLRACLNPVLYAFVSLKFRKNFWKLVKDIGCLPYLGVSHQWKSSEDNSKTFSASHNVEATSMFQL
Sequence of GPR103 (Q96P65 whole entry): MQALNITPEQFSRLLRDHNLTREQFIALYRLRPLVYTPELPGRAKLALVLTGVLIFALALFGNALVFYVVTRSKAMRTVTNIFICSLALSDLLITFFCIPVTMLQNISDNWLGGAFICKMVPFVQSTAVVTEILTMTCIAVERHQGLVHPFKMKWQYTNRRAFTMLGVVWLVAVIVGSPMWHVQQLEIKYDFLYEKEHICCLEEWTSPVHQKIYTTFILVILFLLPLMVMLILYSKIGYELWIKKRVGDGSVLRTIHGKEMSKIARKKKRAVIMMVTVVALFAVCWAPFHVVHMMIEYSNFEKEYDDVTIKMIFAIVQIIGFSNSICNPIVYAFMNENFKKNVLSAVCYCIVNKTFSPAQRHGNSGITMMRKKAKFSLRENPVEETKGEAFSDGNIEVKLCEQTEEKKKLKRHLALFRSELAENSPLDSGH
Sequence of MCHR1 (Q99705 whole entry): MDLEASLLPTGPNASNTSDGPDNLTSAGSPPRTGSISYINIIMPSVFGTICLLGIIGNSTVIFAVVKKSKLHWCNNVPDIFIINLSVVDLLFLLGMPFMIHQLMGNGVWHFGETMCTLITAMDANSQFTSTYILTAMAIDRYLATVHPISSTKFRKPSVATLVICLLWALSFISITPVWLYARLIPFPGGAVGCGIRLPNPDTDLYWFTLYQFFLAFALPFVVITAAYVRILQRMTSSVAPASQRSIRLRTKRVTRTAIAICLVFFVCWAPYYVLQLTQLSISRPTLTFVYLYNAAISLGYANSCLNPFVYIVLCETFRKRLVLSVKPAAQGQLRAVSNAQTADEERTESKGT
Sequence of PPYR1 (P50391 whole entry): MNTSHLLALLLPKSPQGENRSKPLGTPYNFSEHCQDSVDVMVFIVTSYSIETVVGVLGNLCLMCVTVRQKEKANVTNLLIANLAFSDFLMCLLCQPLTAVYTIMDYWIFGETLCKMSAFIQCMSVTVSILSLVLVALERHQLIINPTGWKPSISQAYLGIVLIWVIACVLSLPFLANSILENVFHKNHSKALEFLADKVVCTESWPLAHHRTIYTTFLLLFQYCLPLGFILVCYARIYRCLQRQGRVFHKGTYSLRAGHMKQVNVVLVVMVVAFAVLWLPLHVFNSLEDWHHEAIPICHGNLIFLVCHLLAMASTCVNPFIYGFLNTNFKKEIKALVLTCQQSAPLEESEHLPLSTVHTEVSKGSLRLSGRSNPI
Sequence of NMU1R (Q9HB89 whole entry): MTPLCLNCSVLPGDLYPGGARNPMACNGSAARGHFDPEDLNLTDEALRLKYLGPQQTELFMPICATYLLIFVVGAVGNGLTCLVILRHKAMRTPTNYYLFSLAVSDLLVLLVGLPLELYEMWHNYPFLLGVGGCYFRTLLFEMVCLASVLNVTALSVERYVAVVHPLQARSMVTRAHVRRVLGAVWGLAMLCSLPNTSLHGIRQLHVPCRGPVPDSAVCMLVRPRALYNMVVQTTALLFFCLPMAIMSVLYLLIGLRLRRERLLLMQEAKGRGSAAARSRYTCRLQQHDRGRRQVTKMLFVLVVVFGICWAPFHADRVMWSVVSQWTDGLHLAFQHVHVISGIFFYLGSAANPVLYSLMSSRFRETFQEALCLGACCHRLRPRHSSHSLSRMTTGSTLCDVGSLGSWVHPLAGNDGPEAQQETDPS

B1: QRFP-26 (peptide, UniProt P83859 108-133, looked up)
peptide: TSGPLGNLAEELNGYSRKKGGFSFRF
B1: in assay [1], the EC50 (RC50), arrestin, agonist mode amounted to 10 nM and the EC80, arrestin, agonist mode worked out at 27.1 nM.

B2: TFLLR-NH2 (peptide)
peptide: TFLLR-NH2
In assay [2], B2 displayed an EC50 (RC50), arrestin, agonist mode of 14500 nM and an EC80, arrestin, agonist mode of 28700 nM.

B3: Neuropeptide W23 (peptide, UniProt Q8N729 33-55, looked up)
peptide: WYKHVASPRYHTVGRAAGLLMGL
In assay [3], B3 gave an EC50 (RC50), arrestin, agonist mode of 2.17 nM and an EC80, arrestin, agonist mode of 8.01 nM. Moreover, in assay [4], the EC50 (RC50), arrestin, agonist mode was determined as 3.62 nM and the EC80, arrestin, agonist mode came out at 12.2 nM.

B4: octadecaneuropeptide (ODN) (peptide)
peptide: QATVGDVNTDRPGLLDLK
modifications: also: synthesised on Rink amide resin, C-terminal amide not given here outright
As for B4, the % Activity, arrestin, antagonist mode, 2.5 uM in assay [2] was -17%; in assay [5] it was -16.8%.

B5: EG VEGF (ligand, UniProt P58294 20-105, looked up)
chain: AVITGACERDVQCGAGTCCAISLWLRGLRMCTPLGREGEECHPGSHKVPFFRKRKHHTCPCLPNLLCSRFPDGRYRCSMDLKNINF
In assay [6], B5 gave an EC50 (RC50), arrestin, agonist mode of 17.7 nM and an EC80, arrestin, agonist mode of 53.7 nM. In assay [7], the EC50 (RC50), arrestin, agonist mode is 10.6 nM and the EC80, arrestin, agonist mode amounted to 30 nM.

B6: Neuromedin U-25 (peptide, UniProt P48645 142-166, looked up)
peptide: FRVDEEFQSPFASQSRGYFLFRPRN
In [8], B6 gave an EC50 (RC50), arrestin, agonist mode of 1.43 nM and an EC80, arrestin, agonist mode of 3.68 nM.

B7: CXCL13 (ligand, UniProt O43927 23-109, looked up)
chain: VLEVYYTSLRCRCVQESSVFIPRRFIDRIQILPRGNGCPRKEIIVWKKNKSIVCVDPQAEWIQRMMEVLRKRSSSTLPVPVFKRKIP
For the molecule B7, in [9], the EC50 (RC50), arrestin, agonist mode was 21 nM and the EC80, arrestin, agonist mode came out at 61.2 nM.

B8: MCH (peptide, UniProt P20382 147-165, looked up)
peptide: DFDMLRCMLGRVYRPCWQV
As for B8, in assay [10], the EC50 (RC50), arrestin, agonist mode was determined as 167 nM and the EC80, arrestin, agonist mode was 444 nM. In assay [11], the EC50 (RC50), arrestin, agonist mode was determined as 5.51 nM and the EC80, arrestin, agonist mode was 20.2 nM.

B9: CCL1 (ligand, UniProt P22362 24-96, looked up)
chain: KSMQVPFSRCCFSFAEQEIPLRAILCYRNTSSICSNEGLIFKLKRGKEACALDTVGWVQRHRKMLRHCPSKRK
In the case of B9, in [12], the EC50 (RC50), arrestin, agonist mode was found to be 45.8 nM and the EC80, arrestin, agonist mode is 159 nM.

B10: Urotensin II (peptide, UniProt O95399 114-124, looked up)
peptide: ETPDCFWKYCV
In [13], B10 returned an EC50 (RC50), arrestin, agonist mode of 1.19 nM and an EC80, arrestin, agonist mode of 4.22 nM.

B11: CXCL16 (ligand, UniProt Q9H2A7 30-118, looked up)
chain: NEGSVTGSCYCGKRISSDSPPSVQFMNRLRKHLRAYHRCLYYTRFQLLSWSVCGGNKDPWVQELMSCLDLKECGHAYSGIVAHQKHLLP
On to B11, for which, in assay [14], the EC50 (RC50), arrestin, agonist mode was 6.81 nM and the EC80, arrestin, agonist mode was found to be 21 nM.

B12: Neuropeptide S (peptide, UniProt P0C0P6 70-89, looked up)
peptide: SFRNGVGTGMKKTSFQRAKS
Regarding B12, in assay [15], the EC50 (RC50), arrestin, agonist mode was found to be 23.6 nM and the EC80, arrestin, agonist mode was 45.4 nM.

B13: Sauvagine (peptide, UniProt P01144 1-40, looked up)
peptide: QGPPISIDLSLELLRKMIEIEKQEKEKQQAANNRLLLDTI
In assay [16], B13 displayed an EC50 (RC50), arrestin, agonist mode of 5.99 nM and an EC80, arrestin, agonist mode of 24.5 nM. In [17], this molecule returned an EC50 (RC50), arrestin, agonist mode of 3.28 nM and an EC80, arrestin, agonist mode of 10.3 nM.

B14: CCL27 (ligand, UniProt Q9Y4X3 25-112, looked up)
chain: FLLPPSTACCTQLYRKPLSDKLLRKVIQVELQEADGDCHLQAFVLHLAQRSICIHPQNPSLSQWFEHQERKLHGTLPKLNFGMLRKMG
With B14, in assay [18], the EC50 (RC50), arrestin, agonist mode stood at 26.3 nM and the EC80, arrestin, agonist mode worked out at 109 nM.

B15: Pancreatic Polypeptide (peptide, UniProt P01298 30-65, looked up)
peptide: APLEPVYPGDNATPEQMAQYAADLRRYINMLTRPRY
In assay [19], B15 registered an EC50 (RC50), arrestin, agonist mode of 1.5 nM and an EC80, arrestin, agonist mode of 5 nM.

B16: CCL22 (ligand, UniProt O00626 25-93, looked up)
chain: GPYGANMEDSVCCRDYVRYRLPLRVVKHFYWTSDSCPRPGVVLLTFRDKEICADPRVPWVKMILNKLSQ
In [20], B16 yielded an EC50 (RC50), arrestin, agonist mode of 3.44 nM and an EC80, arrestin, agonist mode of 19.7 nM.

B17: CXCL11 (ligand, UniProt O14625 22-94, looked up)
chain: FPMFKRGRCLCIGPGVKAVKVADIEKASIMYPSNNCDKIEVIITLKENKGQRCLNPKSKQARLIIKKVERKNF
B17: in assay [21], the EC50 (RC50), arrestin, agonist mode was 12 nM and the EC80, arrestin, agonist mode turned out to be 17.9 nM.
